Measured values: article PMC2856910

Target: β-cat bound to cadherin (in vitro binding studies, unpublished data) (UniProt Q02248)
Sequence of UniProt Q02248 (Q02248 whole entry, chain 1 of 2): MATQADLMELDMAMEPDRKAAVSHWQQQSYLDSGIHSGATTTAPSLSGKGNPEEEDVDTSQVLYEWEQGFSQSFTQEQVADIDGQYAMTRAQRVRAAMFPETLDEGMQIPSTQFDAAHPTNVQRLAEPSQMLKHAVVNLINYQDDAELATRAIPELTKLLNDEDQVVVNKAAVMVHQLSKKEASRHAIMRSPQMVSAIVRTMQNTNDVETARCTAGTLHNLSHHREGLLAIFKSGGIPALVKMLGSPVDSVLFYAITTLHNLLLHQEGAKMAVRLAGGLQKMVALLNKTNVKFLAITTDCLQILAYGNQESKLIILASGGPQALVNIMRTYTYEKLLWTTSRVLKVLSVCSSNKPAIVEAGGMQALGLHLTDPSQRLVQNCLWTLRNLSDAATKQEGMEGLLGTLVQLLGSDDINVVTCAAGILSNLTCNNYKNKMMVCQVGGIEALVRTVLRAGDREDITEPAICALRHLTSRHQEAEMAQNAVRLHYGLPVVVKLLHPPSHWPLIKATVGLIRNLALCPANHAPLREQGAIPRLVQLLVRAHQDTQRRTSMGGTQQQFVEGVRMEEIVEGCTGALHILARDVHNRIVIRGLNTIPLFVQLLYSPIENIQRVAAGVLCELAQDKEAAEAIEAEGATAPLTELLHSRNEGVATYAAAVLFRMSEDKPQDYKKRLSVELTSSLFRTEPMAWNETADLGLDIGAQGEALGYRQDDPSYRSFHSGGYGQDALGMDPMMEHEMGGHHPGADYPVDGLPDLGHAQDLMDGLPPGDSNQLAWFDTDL
Sequence of UniProt Q02248 (P09803 24-884, chain 2 of 2, further chain): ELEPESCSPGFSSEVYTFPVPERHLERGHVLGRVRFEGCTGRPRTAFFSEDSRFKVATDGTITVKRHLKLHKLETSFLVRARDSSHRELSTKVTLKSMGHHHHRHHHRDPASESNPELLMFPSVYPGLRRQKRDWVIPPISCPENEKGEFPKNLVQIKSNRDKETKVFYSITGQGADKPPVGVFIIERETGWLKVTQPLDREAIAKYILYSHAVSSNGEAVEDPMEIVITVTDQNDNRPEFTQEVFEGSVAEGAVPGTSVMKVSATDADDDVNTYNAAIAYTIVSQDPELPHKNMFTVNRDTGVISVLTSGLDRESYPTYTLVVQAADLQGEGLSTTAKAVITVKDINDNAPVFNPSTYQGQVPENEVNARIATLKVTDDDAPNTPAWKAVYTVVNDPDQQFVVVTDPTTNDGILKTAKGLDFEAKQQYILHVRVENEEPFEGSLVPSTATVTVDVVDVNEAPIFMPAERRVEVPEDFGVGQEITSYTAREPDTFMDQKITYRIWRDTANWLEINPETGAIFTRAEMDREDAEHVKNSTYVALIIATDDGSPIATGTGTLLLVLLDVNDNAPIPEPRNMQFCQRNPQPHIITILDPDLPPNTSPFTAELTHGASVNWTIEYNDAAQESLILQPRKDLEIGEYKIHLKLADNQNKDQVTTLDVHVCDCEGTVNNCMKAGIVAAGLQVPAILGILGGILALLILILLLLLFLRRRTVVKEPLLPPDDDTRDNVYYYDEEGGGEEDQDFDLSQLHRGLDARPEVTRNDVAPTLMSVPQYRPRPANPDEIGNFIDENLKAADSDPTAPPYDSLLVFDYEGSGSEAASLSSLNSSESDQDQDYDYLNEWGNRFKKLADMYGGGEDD

- fold enhancement of binding against β-cat alone: > 10 fold
Substance: α-catenin (in vitro binding studies, unpublished data) (from UniProt P26231 1-906) (natural protein)
